From patent US20240317890A1 (INSTITUT CURIE, published 2024)

Target: T1, recombinant human Her2/ErbB2 Fc Tag (ACROBiosystems) (human, UniProt P04626 23-652)
T1 construct: Bought product; Captured on protein A biosensors; also called HER2-Fc; not shown: Fc tag of the bought product
Test: BLI (Octet-HTX), HER2-Fc captured on protein A biosensors, sdAb in solution, 37 C
Source text: Affinity measurements: Affinity measurements can be done by surface plasmon resonance (for example as detailed in Moutel, Sandrine et al. “NaLi-H1: A universal synthetic library of humanized nanobodies providing highly functional antibodies and intrabodies.” eLife vol. 5 e16228. 19 Jul. 2016, doi:10.7554/eLife.16228). More particularly, binding affinities of selected hs2dAb fused to a 10HIS tag measured by surface plasmon resonance single cycle kinetics method. Dissociation equilibrium constant KD corresponds to the ratio between off-rate and on-rate kinetic constant Koff/Kₒₙ. […] Affinity measurements were also performed on an Octet-HTX (Sartorius) by bio-Layer Interferometry (BLI) which is an optical technique for measuring macromolecular interactions by analyzing interference patterns of white light reflected from the surface of a biosensor tip. BLI experiments were used to determine the kinetics and affinity of molecular interactions. Biosensors with proteinA were used to capture recombinant human Her2/ErbB2 Fc Tag (ACROBiosystems), the sensors were then dipped in wells containing purified sdAb to measure kinetics at 37° C.
Affinity measurement were also performed using BLI as above detailed.

Kd [nM] | koff [s⁻¹] | kon [M⁻¹ s⁻¹] | Binder
33.3 | 0.0015 | 44000 | anti-HER2 humanized synthetic single domain antibody sdAb no 5 (VHH, Purified sdAb in BLI; also called sdAb 5; hsdAb 5) VHH: EVQLQASGGGFVQPGGSLRLSCAASGYTFSEETMGWFRQAPGKEREFVSAISWNHTFFEYYADSVKGRFTISRDNSKNTVYLQMNSLRAEDTATYYCAVTPLPPNKAYWGQGTQVTVSS
5.2 | 0.0076 | 1.47e+06 | anti-HER2 humanized synthetic single domain antibody sdAb no 4 (VHH, Purified sdAb in BLI; Any tag is not described for this assay; also called sdAb 4) VHH: EVQLQASGGGFVQPGGSLRLSCAASGYTSRESGMGWFRQAPGKEREFVSAISRDQDGISYYADSVKGRFTISRDNSKNTVYLQMNSLRAEDTATYYCAMIPLTRNAKYWGQGTQVTVSS
8.4 | 0.0066 | 780000 | anti-HER2 humanized synthetic single domain antibody sdAb no 6 (VHH, Purified sdAb in BLI; Any tag is not described for this assay; also called sdAb 6) VHH: EVQLQASGGGFVQPGGSLRLSCAASGRGYTGTTMGWFRQAPGKEREFVSAISWTSNQTSYYADSVKGRFTISRDNSKNTVYLQMNSLRAEDTATYYCAMMPLPRWKGYWGQGTQVTVSS
4.6 | 0.004 | 880000 | anti-HER2 humanized synthetic single domain antibody sdAb no 1 (VHH, Purified sdAb in BLI; also called sdAb 1; hsdAb1) VHH: EVQLQASGGGFVQPGGSLRLSCAASGATSNISNMGWFRQAPGKEREFVSAISRAESRPLYYADSVKGRFTISRDNSKNTVYLQMNSLRAEDTATYYCAYMPLVRHKAYWGQGTQVTVSS
4.1 | 0.0049 | 1.2e+06 | anti-HER2 humanized synthetic single domain antibody sdAb no 2 (VHH, Purified sdAb in BLI; also called sdAb 2; hsdAb 2) VHH: EVQLQASGGGFVQPGGSLRLSCAASGDSYNESSMGWFRQAPGKEREFVSAISARGNHPLYYADSVKGRFTISRDNSKNTVYLQMNSLRAEDTATYYCASMPMPKWKKYWGQGTQVTVSS
